Here are results for 77 sequences from the supplement of paper PMC7877785.

The data set in a line: self-splicing fitness, log relative to wild type (ln ratio); higher = more splicing; Tetrahymena group I intron in knt gene, E. coli kanamycin selection, DiMSum; sequences stand for … in CUCUCU…GGAGGGAAAAGUUAUCAGGCAUGCACCUGGUAGCUAGUCUUUAAACCAAUAGAUUGCAUCGGUUUAAAAGGCAAGACCGUCAAAUUGCGGGAAAGGGGUCAACAGCCGUUCAGUACCAAGUCUCAGGGGAAACUUUGAGAUGGCCUUGCAAAGGGUAUGGUAAUAAGCUGACGGACAUGGUCCUAACCACGCAGCCAAGUCCUAAGUCAACAGAUCUUCUGUUGAUAUGGAUGCAGUUCACAGACUAAAUGUCGGUCGGGGAAGAUGUAUUCUUCUCAUAAGAUAUAGUCGGACCUCUCCUUAAUGGGAGCUAGCGGAUGAAGUGAUGCAACACUGGAGCCGCUGGGAACUAAUUUGUAUGCGAAAGUAUAUUGAUUAGUUUUGGAGUACUCGUGGUCG
The essentials: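 A randomised library covering all eight P1ex-region intron nucleotides was built with the intron in the knt kanamycin-resistance gene on pET-22b(+) and held in E. coli BL21(DE3). Cells were grown overnight at 37°C or 30°C on LB agar, with or without 25 μg/mL kanamycin, plus 100 μg/mL carbenicillin, 50 μM IPTG and 0.2% rhamnose, and pooled colonies were amplicon-sequenced on an Illumina HiSeq 2500. DiMSum fitness is the error-weighted combination of wild-type-normalised replicate fold changes, kanamycin versus none.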

± gives the uncertainty stated by the source.

For AGCAAGCAAUAUUACGGCAU, the “self-splicing fitness (ln)” value (30 °C) was -0.0513 ± 0.084 and the “self-splicing fitness (ln)” value (37 °C) is -0.204 ± 0.092.
On the same counts, the results for GCGUAGCAAUAUUACGAUGG are -1.91 ± 0.17 and -2.82 ± 0.31.
On the same counts, the results for UAGCAGCAAUAUUACGGUCU are -1.22 ± 0.074 and -1.24 ± 0.086.
On the same counts, the results for GCACAGCAAUAUUACGUCAU are -1.89 ± 0.071 and -0.731 ± 0.082.
On to UUUGAGCAAUAUUACGAGCG, for which the “self-splicing fitness (ln)” value (37 °C) is -1.88 ± 0.35.
On to AUCGAGCAAUAUUACGUUUU, for which the “self-splicing fitness (ln)” value by setting is: (30 °C) -4.86 ± 0.36; (37 °C) -1.23 ± 0.12.
With GUCCAGCAAUAUUACGGAUC, the “self-splicing fitness (ln)” value (30 °C) was -4.49 ± 0.28 and the “self-splicing fitness (ln)” value (37 °C) was -3.62 ± 0.27.
On the same counts, the results for UGCAAGCAAUAUUACGUCAA are -2.14 ± 0.098 and -0.795 ± 0.073.
Turning to CCAGAGCAAUAUUACGCGUC, the “self-splicing fitness (ln)” value by setting is: (30 °C) -3.45 ± 0.24; (37 °C) -3 ± 0.3.
On the same counts, the results for GGGCAGCAAUAUUACGAAGG are -3.32 ± 0.27 and -2.45 ± 0.35.
On the same counts, the results for AACUAGCAAUAUUACGGACG are -1.21 ± 0.06 and -0.904 ± 0.072.
On the same counts, the results for GUAGAGCAAUAUUACGGCAA are -2.01 ± 0.13 and -0.535 ± 0.21.
As to ACCAAGCAAUAUUACGGGUG, the “self-splicing fitness (ln)” value is -1.05 ± 0.043 (30 °C) and -0.597 ± 0.059 (37 °C).
Regarding AUUGAGCAAUAUUACGGAAG, under “37 °C”, the “self-splicing fitness (ln)” value is -2.63 ± 0.32.
On to AAUUAGCAAUAUUACGAACA, for which the “self-splicing fitness (ln)” value (30 °C) was -0.672 ± 0.16 and the “self-splicing fitness (ln)” value (37 °C) is -0.784 ± 0.18.
On the same counts, the results for ACGUAGCAAUAUUACGCACA are -0.463 ± 0.12 and -0.501 ± 0.13.
On the same counts, the results for AUUCAGCAAUAUUACGGAUG are -0.985 ± 0.079 and -0.448 ± 0.097.
As to UCGUAGCAAUAUUACGCCGU, the “self-splicing fitness (ln)” value by setting is: (30 °C) -1.52 ± 0.14; (37 °C) -0.646 ± 0.16.
On the same counts, the results for CUGAAGCAAUAUUACGGCCA are -2.42 ± 0.17 and -2.69 ± 0.34.
On to UACCAGCAAUAUUACGAUAU, for which the “self-splicing fitness (ln)” value reads like this: (30 °C) -2.78 ± 0.12; (37 °C) -1.32 ± 0.12.
On the same counts, the results for UUAUAGCAAUAUUACGACAG are -1.09 ± 0.16 and -0.548 ± 0.21.
On the same counts, the results for CAAUAGCAAUAUUACGUACG are -0.451 ± 0.063 and -0.069 ± 0.078.
On the same counts, the results for GUCAAGCAAUAUUACGGUAU are -1.54 ± 0.075 and -0.662 ± 0.085.
On to UUCCAGCAAUAUUACGUUCG, for which the “self-splicing fitness (ln)” value runs as follows: (30 °C) -2.67 ± 0.16; (37 °C) -1.7 ± 0.23.
On the same counts, the results for CGAUAGCAAUAUUACGGCGG are -0.197 ± 0.077 and 0.211 ± 0.1.
Regarding GGUCAGCAAUAUUACGCGUC, the “self-splicing fitness (ln)” value by setting is: (30 °C) -1.46 ± 0.17; (37 °C) 0.149 ± 0.19.
For the sequence CAUAAGCAAUAUUACGUUGG, the “self-splicing fitness (ln)” value is -2.6 ± 0.095 (30 °C) and -1.26 ± 0.094 (37 °C).
On the same counts, the results for UUGAAGCAAUAUUACGGCUU are -3.03 ± 0.26 and -2.71 ± 0.3.
On the same counts, the results for AGUGAGCAAUAUUACGGCUA are -0.705 ± 0.24 and -1.38 ± 0.23.
On the same counts, the results for UGUCAGCAAUAUUACGUGCG are -0.00445 ± 0.076 and 0.159 ± 0.092.
For the sequence GAGCAGCAAUAUUACGAUUU, the “self-splicing fitness (ln)” value is -0.179 ± 0.068 (30 °C) and -0.211 ± 0.094 (37 °C).
On to UAGAAGCAAUAUUACGUUUC, for which the “self-splicing fitness (ln)” value (30 °C) is -2.28 ± 0.16 and the “self-splicing fitness (ln)” value (37 °C) was -0.293 ± 0.17.
On to CUCGAGCAAUAUUACGAUAG, for which the “self-splicing fitness (ln)” value (30 °C) is -1.11 ± 0.15 and the “self-splicing fitness (ln)” value (37 °C) is -0.333 ± 0.15.
Take UGGGAGCAAUAUUACGUUUA: the “self-splicing fitness (ln)” value is -2.62 ± 0.29 (30 °C) and -2.92 ± 0.33 (37 °C).
With UCAAAGCAAUAUUACGUGGG, the “self-splicing fitness (ln)” value by setting is: (30 °C) -2.85 ± 0.098; (37 °C) -2.17 ± 0.12.
CGAGAGCAAUAUUACGAGCU: the “self-splicing fitness (ln)” value is, setting by setting: (30 °C) -4.6 ± 0.42; (37 °C) -3.02 ± 0.47.
Regarding CUGGAGCAAUAUUACGAUUC, the “self-splicing fitness (ln)” value (30 °C) was -2.02 ± 0.29.
Take UCCCAGCAAUAUUACGAUGU: the “self-splicing fitness (ln)” value is, setting by setting: (30 °C) -2.1 ± 0.088; (37 °C) -1.2 ± 0.12.
On the same counts, the results for UUAAAGCAAUAUUACGACUC are -0.15 ± 0.12 and -0.0274 ± 0.15.
On to ACAAAGCAAUAUUACGCGAG, for which the “self-splicing fitness (ln)” value (30 °C) is -1.33 ± 0.06 and the “self-splicing fitness (ln)” value (37 °C) is -0.621 ± 0.072.
As to ACGAAGCAAUAUUACGUCGU, the “self-splicing fitness (ln)” value was -3.41 ± 0.29 (30 °C) and -3.5 ± 0.42 (37 °C).
On the same counts, the results for AUGGAGCAAUAUUACGUCCA are -0.783 ± 0.45 and -0.778 ± 0.34.
On the same counts, the results for AGUGAGCAAUAUUACGUACA are -1.72 ± 0.28 and -0.682 ± 0.36.
On the same counts, the results for CUCUAGCAAUAUUACGGAAU are -3.43 ± 0.26 and -3.25 ± 0.3.
With CUGAAGCAAUAUUACGCCUC, where the note is “30 °C”, the “self-splicing fitness (ln)” value is -3.61 ± 0.44.
Turning to GCGGAGCAAUAUUACGCGAU, the “self-splicing fitness (ln)” value by setting is: (30 °C) -2.58 ± 0.33; (37 °C) -2.18 ± 0.36.
With CAAGAGCAAUAUUACGGUAU, the “self-splicing fitness (ln)” value was -4.27 ± 0.22 (30 °C) and -2.63 ± 0.21 (37 °C).
On the same counts, the results for GAGCAGCAAUAUUACGCACA are -0.256 ± 0.21 and -0.415 ± 0.14.
As to AAGGAGCAAUAUUACGGUCA, the “self-splicing fitness (ln)” value (37 °C) was -2.26 ± 0.32.
For CGUGAGCAAUAUUACGGGUC, the “self-splicing fitness (ln)” value is, setting by setting: (30 °C) -4 ± 0.24; (37 °C) -2.2 ± 0.19.
For GAUGAGCAAUAUUACGACCC, the “self-splicing fitness (ln)” value (30 °C) is -0.245 ± 0.34 and the “self-splicing fitness (ln)” value (37 °C) was -0.0127 ± 0.3.
On the same counts, the results for GCUAAGCAAUAUUACGGAAG are -1.5 ± 0.071 and -0.648 ± 0.088.
As to GCCAAGCAAUAUUACGCAGC, the “self-splicing fitness (ln)” value reads like this: (30 °C) -2.96 ± 0.2; (37 °C) -2.53 ± 0.25.
As to UUCGAGCAAUAUUACGAAUG, the “self-splicing fitness (ln)” value (30 °C) was -3.37 ± 0.47 and the “self-splicing fitness (ln)” value (37 °C) was -2.26 ± 0.31.
On the same counts, the results for UAAUAGCAAUAUUACGGAGG are -3.17 ± 0.24 and -2.83 ± 0.4.
For the sequence UCGCAGCAAUAUUACGUACG, the “self-splicing fitness (ln)” value runs as follows: (30 °C) -1.12 ± 0.12; (37 °C) -0.686 ± 0.13.
On to UAUUAGCAAUAUUACGGUGG, for which the “self-splicing fitness (ln)” value (30 °C) was -2.71 ± 0.28 and the “self-splicing fitness (ln)” value (37 °C) is -1.22 ± 0.2.
On the same counts, the results for AGCAAGCAAUAUUACGAAGA are -3.3 ± 0.31 and -1.74 ± 0.15.
On the same counts, the results for CUACAGCAAUAUUACGCGGG are -2.27 ± 0.094 and -2.56 ± 0.12.
On the same counts, the results for ACUCAGCAAUAUUACGUGCU are -2.27 ± 0.082 and -2.53 ± 0.11.
In the case of CUUUAGCAAUAUUACGGACU, the “self-splicing fitness (ln)” value runs as follows: (30 °C) -4.41 ± 0.31; (37 °C) -3.71 ± 0.28.
On the same counts, the results for UGCAAGCAAUAUUACGACUA are 0.0901 ± 0.093 and 0.525 ± 0.11.
As for UCGAAGCAAUAUUACGAAGG, the “self-splicing fitness (ln)” value by setting is: (30 °C) -1.84 ± 0.21; (37 °C) -2.47 ± 0.33.
On the same counts, the results for AAUAAGCAAUAUUACGGUAU are -2.05 ± 0.099 and -1.04 ± 0.13.
On the same counts, the results for AAACAGCAAUAUUACGAUUC are -2.04 ± 0.1 and 0.0665 ± 0.091.
On to CUUUAGCAAUAUUACGGAAA, for which, under “37 °C”, the “self-splicing fitness (ln)” value was -2.01 ± 0.27.
For AGGUAGCAAUAUUACGCCCG, the “self-splicing fitness (ln)” value is -0.077 ± 0.022 (30 °C) and -0.122 ± 0.04 (37 °C).
On the same counts, the results for GAUUAGCAAUAUUACGAUGC are -0.852 ± 0.083 and -0.525 ± 0.095.
On the same counts, the results for CAACAGCAAUAUUACGGGCG are -0.0253 ± 0.049 and 0.154 ± 0.062.
For UCAUAGCAAUAUUACGUGAU, the “self-splicing fitness (ln)” value reads like this: (30 °C) -3.82 ± 0.17; (37 °C) -2.62 ± 0.2.
On the same counts, the results for GUGUAGCAAUAUUACGGCCC are 0.713 ± 0.23 and 0.583 ± 0.3.
In the case of AAGUAGCAAUAUUACGGAUU, the “self-splicing fitness (ln)” value (30 °C) is -0.677 ± 0.092 and the “self-splicing fitness (ln)” value (37 °C) was -0.751 ± 0.11.
On the same counts, the results for AAGGAGCAAUAUUACGGACU are -1.99 ± 0.16 and -0.907 ± 0.19.
As to CACGAGCAAUAUUACGAAUU, the “self-splicing fitness (ln)” value by setting is: (30 °C) -4.81 ± 0.41; (37 °C) -2.25 ± 0.21.
On the same counts, the results for GCGCAGCAAUAUUACGGACC are -1.03 ± 0.24 and 0.344 ± 0.38.
With GCUGAGCAAUAUUACGUGAG, the “self-splicing fitness (ln)” value was -1.73 ± 0.11 (30 °C) and -1.28 ± 0.095 (37 °C).
Take ACUAAGCAAUAUUACGCCUU: the “self-splicing fitness (ln)” value runs as follows: (30 °C) -1.09 ± 0.082; (37 °C) -0.381 ± 0.11.
